Data published in patent publication US20260043004A1 (IMMPACT BIO, published 2026).

Molecular target: T1, anti-CD19/CD20 CAR having the amino acid sequence of SEQ ID NO: 2 (construct CC314)
T1 construct: Chimeric antigen receptor on the surface of transduced T cells: Leu16 scFv (VL-VH), (G4S)4, FMC63 scFv (VH-VL), IgG4 spacer, CD28 TM, 4-1BB, CD3 zeta; also called CD19/20 CAR; CD 19/20 CAR
Test: flow cytometry staining of T cells (donor 1917) transduced with CD19/20 CAR lentiviral vector

T1 sequence (chain, as listed by the source): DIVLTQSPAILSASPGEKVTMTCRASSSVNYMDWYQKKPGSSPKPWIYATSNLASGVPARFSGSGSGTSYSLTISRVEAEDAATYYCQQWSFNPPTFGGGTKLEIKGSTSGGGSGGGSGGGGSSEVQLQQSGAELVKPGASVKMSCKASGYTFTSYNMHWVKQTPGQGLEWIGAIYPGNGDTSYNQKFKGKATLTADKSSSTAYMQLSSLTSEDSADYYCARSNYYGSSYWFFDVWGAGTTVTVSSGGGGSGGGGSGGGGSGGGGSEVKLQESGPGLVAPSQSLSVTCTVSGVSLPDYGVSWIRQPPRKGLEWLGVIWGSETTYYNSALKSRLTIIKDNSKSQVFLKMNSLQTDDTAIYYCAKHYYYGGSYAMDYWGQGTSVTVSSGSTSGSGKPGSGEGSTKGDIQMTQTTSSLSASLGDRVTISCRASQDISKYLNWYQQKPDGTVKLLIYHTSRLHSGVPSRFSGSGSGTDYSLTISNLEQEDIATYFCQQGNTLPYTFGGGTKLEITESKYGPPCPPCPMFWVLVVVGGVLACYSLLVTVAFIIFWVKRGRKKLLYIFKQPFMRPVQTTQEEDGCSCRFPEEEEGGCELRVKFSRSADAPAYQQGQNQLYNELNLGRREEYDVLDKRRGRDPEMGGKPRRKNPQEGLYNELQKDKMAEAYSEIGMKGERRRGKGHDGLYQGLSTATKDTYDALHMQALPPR

- % Positive Cells: 68.1%
B1: CD20 Protein-Biotin (Acros) (other, UniProt P11836 1-297, looked up)
chain: MTTPRNSVNGTFPAEPMKGPIAMQSGPKPLFRRMSSLVGPTQSFFMRESKTLGAVQIMNGLFHIALGGLLMIPAGIYAPICVTVWYPLWGGIMYIISGSLLAATEKNSRKCLVKGKMIMNSLSLFAAISGMILSIMDILNIKISHFLKMESLNFIRAHTPYINIYNCEPANPSEKNSPSTQYCYSIQSLFLGILSVMLIFAFFQELVIAGIVENEWKRTCSRPKSNIVLLSAEEKKEQTIEIKEEVVGLTETSSQPKNEEDIEIIPIQEEEEEETETNFPEPPQDQESSPIENDSSP
modifications: biotin (site not stated)
notes: Bought detection reagent
